This experiment has as its target human ICAM-1 extracellular domain with human IgG1 Fc (UniProt P05362). As to the kind of experiment: flow cytometry on cells. The note with it: HEK293FT cells; co-expressed with β2-WT and GFP-TH; parent: est. 270; read off a plot. In general terms: A flow cytometer gives signals particle by particle.
Chain of UniProt P05362 (P05362 whole entry, looked up, the tested form may be a part): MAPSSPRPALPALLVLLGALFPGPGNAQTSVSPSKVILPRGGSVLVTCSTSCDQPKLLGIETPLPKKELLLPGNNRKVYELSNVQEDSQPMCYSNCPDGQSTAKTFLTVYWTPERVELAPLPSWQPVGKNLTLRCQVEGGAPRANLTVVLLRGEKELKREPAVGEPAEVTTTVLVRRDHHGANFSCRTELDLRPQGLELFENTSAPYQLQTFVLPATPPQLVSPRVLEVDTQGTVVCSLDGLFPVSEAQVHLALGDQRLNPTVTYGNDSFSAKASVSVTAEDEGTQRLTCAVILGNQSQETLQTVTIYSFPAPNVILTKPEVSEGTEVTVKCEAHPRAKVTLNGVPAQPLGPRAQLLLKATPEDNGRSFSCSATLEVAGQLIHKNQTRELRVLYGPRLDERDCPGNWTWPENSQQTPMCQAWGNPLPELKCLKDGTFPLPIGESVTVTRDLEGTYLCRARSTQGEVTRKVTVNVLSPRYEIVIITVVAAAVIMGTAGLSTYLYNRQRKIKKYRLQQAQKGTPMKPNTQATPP

On to αL-WT/β2-WT αL:K1097Y, for which the response (Normalized MFI in %) stood at 190.

In the case of αL-WT/β2-WT αL:L1096Y, the response (Normalized MFI in %) was 230.
